From PMC6611741 (2019) come the findings set out here.

The test deals with Bovine serum albumin (Bos taurus (Bovine), UniProt P02769). Put plainly: EGOTFT (SiMoT), BSA-functionalized gate.
Bovine serum albumin, sequence (P02769 25-607): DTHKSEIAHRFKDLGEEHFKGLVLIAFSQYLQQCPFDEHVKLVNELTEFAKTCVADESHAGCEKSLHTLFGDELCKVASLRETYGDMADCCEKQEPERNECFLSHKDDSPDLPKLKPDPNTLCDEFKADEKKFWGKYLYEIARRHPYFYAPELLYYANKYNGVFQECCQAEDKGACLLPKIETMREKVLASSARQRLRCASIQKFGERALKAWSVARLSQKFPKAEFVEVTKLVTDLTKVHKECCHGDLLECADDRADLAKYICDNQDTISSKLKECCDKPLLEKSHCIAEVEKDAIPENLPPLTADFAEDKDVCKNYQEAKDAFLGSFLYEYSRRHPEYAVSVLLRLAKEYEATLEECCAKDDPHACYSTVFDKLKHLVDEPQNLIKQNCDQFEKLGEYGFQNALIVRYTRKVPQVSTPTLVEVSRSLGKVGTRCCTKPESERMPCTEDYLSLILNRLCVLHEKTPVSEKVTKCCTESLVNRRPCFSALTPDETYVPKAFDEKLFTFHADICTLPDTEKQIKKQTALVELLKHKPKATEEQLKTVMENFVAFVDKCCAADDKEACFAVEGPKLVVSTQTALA

B1: Human C-reactive protein (protein)
chain: QTDMSRKAFVFPKESDTSYVSLKAPLTKPLKAFTVCLHFYTELSSTRGYSIFSYATKRQDNEILIFWSKDIGYSFTVGGSEILFEVPEVTVAPVHICTSWESASGIVEFWVDGKPRVRKSLKKGYTVGAEASIILGQEQDSFGGNFEGSQSLVGDIGNVNMWDFVLSPDEINTIYLGGPFSPNVLNWRALKYEVQGEVFTKPQLWP
In the case of B1, the binding result was “no binding”.
